Reference: paper PMC5855320, “Activation of the Notch Signaling Pathway In Vivo Elicits Changes in CSL Nuclear Dynamics” (Developmental Cell, 2018)

What was measured:
[1] = tested on: Su(H) WT (Drosophila melanogaster); experiment: ITC; conditions: ITC: 50 mM sodium phosphate pH 6.5, 150 mM NaCl, 10 C; 10 uM Su(H) in cell, 100 uM DNA in syringe; one-site model
[2] = target: T1, Recombinant Su(H) (98-523) (Drosophila melanogaster, UniProt P28159 98-523); experiment: ITC; MicroCal VP-ITC; typically 50 μM Su(H) in the syringe and 5 μM NICD in the cell; 25°C; 50 mM sodium phosphate pH 6.5, 150 mM NaCl; one-site binding model; conditions: both partners purified
T1 construct: Suppressor of Hairless (Su(H)), the Drosophila CSL, residues 98-523; Wild-type parent of the NBM mutant in the ITC experiment; also called Suppressor of Hairless; CSL; source: bacteria, purified (glutathione-Sepharose, cation exchange, size exclusion chromatography)
T1 sequence (P28159 98-523): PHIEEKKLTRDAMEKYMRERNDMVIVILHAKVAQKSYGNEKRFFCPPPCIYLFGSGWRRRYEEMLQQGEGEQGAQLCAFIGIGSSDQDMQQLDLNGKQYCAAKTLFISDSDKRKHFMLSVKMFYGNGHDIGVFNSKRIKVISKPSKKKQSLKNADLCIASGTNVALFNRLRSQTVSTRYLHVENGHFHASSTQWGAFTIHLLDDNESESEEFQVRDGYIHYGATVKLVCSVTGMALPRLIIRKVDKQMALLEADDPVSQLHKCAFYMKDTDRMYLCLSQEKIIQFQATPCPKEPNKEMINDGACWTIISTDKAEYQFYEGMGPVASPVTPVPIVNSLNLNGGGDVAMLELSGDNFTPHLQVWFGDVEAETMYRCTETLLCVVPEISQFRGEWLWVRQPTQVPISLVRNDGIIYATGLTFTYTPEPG

binding result [2]	Molecule	Kd [1]
–	ITC DNA (Su(H) binding DNA, sequence not given)	460 nM
binds	Recombinant NICD (1762-2142) (domain or fragment, Drosophila melanogaster, UniProt P07207 1762-2142, looked up, Notch intracellular domain (NICD), Drosophila Notch, residues 1762-2142; also called Notch intracellular domain; source: bacteria, purified (glutathione-Sepharose, cation exchange, size exclusion chromatography)) MVLSTQRKRAHGVTWFPEGFRAPAAVMSRRRRDPHGQEMRNLNKQVAMQSQGVGQPGAHWSDDESDMPLPKRQRSDPVSGVGLGNNGGYASDHTMVSEYEEADQRVWSQAHLDVVDVRAIMTPPAHQDGGKHDVDARGPCGLTPLMIAAVRGGGLDTGEDIENNEDSTAQVISDLLAQGAELNATMDKTGETSLHLAARFARADAAKRLLDAGADANCQDNTGRTPLHAAVAADAMGVFQILLRNRATNLNARMHDGTTPLILAARLAIEGMVEDLITADADINAADNSGKTALHWAAAVNNTEAVNILLMHHANRDAQDDKDETPLFLAAREGSYEACKALLDNFANREITDHMDRLPRDVASERLHHDIVRLLDEHVPR	–
